For 2 molecules, Kd, koff and kon results are on record in PMC6701106.

Positions of bridges follow the written chain, without caps; N, C: chain ends. No end group written: not given here.

The target of this assay is mAb3F3 (mouse). Description: SPR; Biacore T200; antibodies injected for 60 s at 10 μl/min in the active flow cell; BSA conjugated peptide antigens flowed at 1.25 to 20 nM. For orientation: Surface plasmon resonance follows binding to a sensor surface in real time, without labels.

What is called Kd is the equilibrium constant for the complex coming apart. High values mean a looser complex, low ones a tighter complex. By koff is commonly meant the rate constant with which the complex falls apart. As a reminder, the kon is the rate constant with which the complex forms.

B1: Mat-Linear (human Prss14/ST14 aa604-627, linear 24mer) (peptide)
peptide: CGLRSFTRQARVVGGTDADEGEWP
B1 registered a Kd of 406 nM, a dissociation rate constant (koff) of 0.0105 s⁻¹ and a kon of 25900 M⁻¹ s⁻¹.

B2: BSA conjugated Mat-Loop (human Prss14/ST14 aa604-627 plus C-terminal cysteine, circular 25mer) (peptide)
peptide: CGLRSFTRQARVVGGTDADEGEWPC
modifications: disulfide 1-25; also: conjugated to BSA
Regarding B2, the Kd came out at 5.33 nM, the koff is 0.00342 s⁻¹ and the on-rate (kon) was 641000 M⁻¹ s⁻¹.
